Measured values as given in publication PMC7614388, “Diversification in the inositol tris/tetrakisphosphate kinase (ITPK) family: crystal structure and enzymology of the outlier AtITPK4” (Biochemical Journal, 2023).

Substrate: Nc1ncnc2c1ncn2[C@@H]1O[C@H](COP(=O)(O)OP(=O)(O)OP(=O)(O)O)[C@@H](O)[C@H]1O
Assay: HPLC kinase assay, Michaelis-Menten fit
Format: biochemical, Arabidopsis thaliana
Conditions: 1 mM Ins(1,4,6)P3, ATP 0-5 mM, 6 mM MgCl2, 20 mM HEPES pH 7.3, 25 °C, 3 µM enzyme

B1: AtITPK4 (Arabidopsis thaliana) (protein)
chain: MKGVLLDESVLFSPESEDSSPSLRESVPSLLRLLRYSMIRTGISYGLDLPENKVDLLRKTAAEYSINCLPLETSLTSVTFGDTLKAWYSDGSILYVASSRKEEILRELSPSQLVVLLDVEGDSLEDPNIIHIHSLEELPMTICCINKKAMGDGAAIVAYIMKPSRVEDFAKRGALPMYPTSCGLIFLPLMFEFPLASQLKHADIIFHKATDEILSIELNCSDSKSSVAVTFSTGMEKLKKYMEDQNACAIVDPIRNIYPVVDRLKMQHILLGLEGLGAAGRKIRGACFLKIDSYDEPDLAQNLSRAGLSLPCIVKPQVACGVADAHSMAIVFRVEDFKNLNTPVPAIIQEYVDHSSRIFKFYVLGETIFHAVKKSIPSSSSLRKSAEENGLKPILFDSLKSLPVDSANQNPVSEIDLELVTEAATWLRKKLDLTIFGFDVVIQEGTGDHVIVDLNYLPSFKEVPDNIAVPAFWEAIRNRFDQHVQEKH
notes: full-length; pOPINE, non-cleavable C-terminal 6xHis tag kept; Ni-NTA purified; HAD-like domain 1-150, ATP-grasp kinase domain from 151; no evidence of homo-oligomers
Km: 52 ± 7 µM
